The term Kd denotes the equilibrium constant for the complex coming apart. Low values mean a tighter complex, high ones a looser complex.

In US5760204 one finds Kd data, which are given here for two substances.

Assay [1] concerns the target human interleukin 5 receptor 2 HSIL5R2 (human). Kind of assay: Scatchard analysis, 125I-labeled human IL-5 on COS7 cells transfected with pCAGGS.HSIL5R2.
Assay [2] addresses human interleukin 5 receptor HSIL5R (human). Kind of assay: Scatchard analysis, 125I-labeled human IL-5 on COS7 cells transfected with pCAGGS.HSIL5R.
The target in assay [3] is low affinity IL-5R on Y16 cells (mouse) (UniProt P21183). Kind of assay: Scatchard analysis, 35S-labeled IL-5 on Y16 cells, low affinity sites.
Assay [4] concerns the target human interleukin 5 receptor 2 HSIL5R2 (human). Kind of assay: Scatchard analysis, 35S-labeled mouse IL-5 on COS7 cells transfected with pCAGGS.HSIL5R2.
The target in assay [5] is human interleukin 5 receptor HSIL5R (human). Kind of assay: Scatchard analysis, 35S-labeled mouse IL-5 on COS7 cells transfected with pCAGGS.HSIL5R.
In assay [6] the target is murine interleukin 5 receptor encoded by pIL-5R.8 (membrane bound, low affinity IL-5R) (mouse). Kind of assay: Scatchard analysis, 35S-labeled IL-5 on COS7 cells transfected with pIL-5R.8 (CDM8 vector).
The target is the same in assay [7]. Kind of assay: Scatchard analysis, 35S-labeled IL-5 on COS7 cells transfected with pCAGGS.5R.8.
The target in assay [8] is high affinity IL-5R on Y16 cells (mouse) (UniProt P21183). Kind of assay: Scatchard analysis, 35S-labeled IL-5 on Y16 cells, high affinity sites.

As to “human interleukin 5 (from UniProt P05113) (ligand)”, the results for the Kd in assay [1] and in assay [2] were 0.41 nM and 0.59 nM, respectively.
With “murine interleukin 5 (from UniProt P04401) (ligand)”, the Kd was determined as 5.1 nM in assay [3]; 0.355 nM in assay [4]; 0.25 nM in assay [5]; 2 nM in assay [6]; 9.6 nM in assay [7]; 0.02 nM in assay [8].
